{
  "source": "patent US20130130922",
  "about": "“ANALYSIS OF METHYLATION SITES” (Centre for Addiction and Mental Health, published 2013)",
  "binders": {"B1": {"name": "24-mer duplex oligonucleotide (dsDNA)", "DNA 1": "GCATTACGCGCCAGGTCGTTTCGT", "DNA 2": "TACGAAACGACCTGGCGCGTAATG"}},
  "target": "M.SssI Q142A/N370A (UniProt P15840 SEQ:1-386, Q142A,N370A)",
  "sequence (P15840 whole entry Q142A/N370A)": "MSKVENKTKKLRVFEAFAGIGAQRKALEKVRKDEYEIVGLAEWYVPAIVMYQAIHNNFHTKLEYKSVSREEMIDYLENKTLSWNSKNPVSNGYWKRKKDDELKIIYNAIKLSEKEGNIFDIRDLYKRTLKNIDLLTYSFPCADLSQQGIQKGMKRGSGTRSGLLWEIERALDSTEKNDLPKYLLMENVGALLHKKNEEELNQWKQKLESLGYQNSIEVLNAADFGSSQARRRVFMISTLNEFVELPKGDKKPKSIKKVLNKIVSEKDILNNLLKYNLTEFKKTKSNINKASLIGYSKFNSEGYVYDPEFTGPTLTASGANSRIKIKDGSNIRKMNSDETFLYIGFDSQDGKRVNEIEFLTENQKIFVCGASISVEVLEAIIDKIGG",
  "experiment": "Ado-6-amine 80 uM, no Mg, 37 C; modified deoxycytidine detected by HPLC/ESI-MS",
  "details": "tags: His6",
  "data": [
    {"binder": "B1", "values": [
      {"measurement": "binding result", "value": "binds"}
    ]}
  ]
}
